# In the RNAGym collection of RNA variant scans (doi:10.1073/pnas.2313332121):
# B1: TPR t1 (parent)
# chain: GACCAAUCUGCCCUCAGAGCUCGAGAACAUCUUCGGAUGCAGAGGAGGCAGGCUUCGGUGGCGCGAUAGCGCCAACGUCCUCAACCUCCAAUGCAUCCCACCACAUGAUGAUGCCUGAAGAGCCUUGGUUUUUUG
# Variants of: B1
# Assay: polymerase ribozyme fitness, log enrichment relative to wild type (log ratio); higher = more active; in vitro selection for triplet polymerase activity
# Procedure, shortened: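 Only genotypes with ≥10 input reads and ≥1 read per output were kept after Illumina sequencing of input and output libraries. These libraries were PCR-built, transcribed mutants of each subunit of a heterodimeric triplet polymerase ribozyme, each put through one triplicate in vitro selection round with frozen incubation at −7 °C, gel excision of extended constructs, streptavidin-bead capture and RT-PCR. Fitness is a logarithmic ratio of genotype enrichment to wild-type enrichment, from inverse-variance-weighted replicate averages, with the logarithm in base 2.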
row,Variant,polymerase ribozyme fitness (log ratio)
1,A6G A41C C56A G69C G93U G117C,-6.65
2,A6G G48A G71C G117A,-2.1
3,A6U A46U C72A U96A G120A G128A,-2.92
4,A6U G48U C53A,-0.649
5,A6G G69U C115A G120A,0.502
6,A6U A37G G127C G135U,-1.84
7,A6C C72U C73U C98G C115A U116G,-7.45
8,A6G C12A G23C A66G C114U G128A,-5.09
9,A6G C13G G47A C56A C80U,-2.43
10,A6G C72G G117U A121U G127A,-2.18
11,A6G A43G G69U,-0.0956
12,A6U C13G A74U C88U C97U G117C C124G U132A,-3.99
13,A6U C53A C62A C97U G113A,-3.13
14,A6G G42U C73A C85U U106G G110U,-5.96
15,A6G A83U,-0.371
16,A6G C62U G110C,-4.63
17,A6C U59G C86U G113U,-3.51
18,A6U A43C A50G G61A C115A U116C,-4.89
19,A6C U59G,-0.454
20,A6U C34U,-4.08
21,A6U C15A U21G G58A A90G U112C G127A,-4.37

row,Variant,polymerase ribozyme fitness (log ratio)
1,A6C G93U A100U,-2.54
2,A6U G44A C94A,-1.69
3,A6U C13A G36C C123U,0.00441
4,A6U G48U G93A G110U,-2.34
5,A6U G36A G71U,-0.709
6,A6U A50U,-0.776
7,A6U C8G C72U C86G,-0.629
8,A6U A46C,-0.0914
9,A6U C8A G71U C101G,-1.45
10,A6C C70G C82A,-2.15
11,A6U G48U C53A C88G C102A,-3.09
12,A6U G47A C62A C123A,-1.69
13,A6U C12G C89G A105C U106G,-3.35
14,A6U C123U,1.41
15,A6G C34U G60U C72U U116A C124A,-4.04
16,A6U G61C U78G U130C,-3.92
17,A6G C8U C49G C70A U78C,-3.15
18,A6G C11U C98A,-5.05
19,A6C C88U,-0.228
20,A6C G39U G77U G113U C114G,-3.79
21,A6U C89U,-0.0502

row,Variant,polymerase ribozyme fitness (log ratio)
1,A6C U7G A29G G48C A95C,-3.37
2,A6U C11U C22U A41C,-5.83
3,A6U G39A C88A,-1.23
4,A6U C11U G47A A118U,-1.52
5,A6U A91C,-1.21
6,A6U A18U G60U U112C,-0.222
7,A6U C64U,-0.037
8,A6G U7C A74C C80G U112G,-6.27
9,A6C G57C C79A C85U,-2.83
10,A6U C8A C12A A41U C79A C89A C94U C101U U116G C123U,-6.77
11,A6U A74C,0.0283
12,A6U A74U,0.241
13,A6G G47U C64U C99A G120A,-5.98
14,A6U C13G G69U C88U C97U G117C C124G U132A,-1.66
15,A6U A37G C56U,0.28
16,A6U C62A A111U G122A,-5.22
17,A6C C72G,-0.682
18,A6U C11U C80U C102U,-3.5
19,A6G A46C G48U G52U A95C,-5.42
20,A6U G36C,-1.42
21,A6U G36U,-1.07

row,Variant,polymerase ribozyme fitness (log ratio)
1,A6C G63U C115A U116C,-4.89
2,A6U C124U U133G,0.942
3,A6U C13U G61C U112A,-1.1
4,A6U C12A,0.811
5,A6U C12U,-0.0768
6,A6U G48A C123A,0.913
7,A6U G42C A74C C79G C123G U125A,-2.83
8,A6G C11A U92G,-4.04
9,A6U G44U G61A A103U G122A C124G U125G,-4.72
10,A6C G23A C98A C115G,-7.8
11,A6U A83U C115U,-1.65
12,A6C G47A C124G,0.159
13,A6U G36U G71A G122U C124A,-1.43
14,A6U A37C,-0.207
15,A6U A37U,-0.0542
16,A6C G69U C72U,-0.0767
17,A6G G39U G69U A119U,-0.0303
18,A6G U7A C53U C80G C101A,-5.66
19,A6U G45C C101U G110C,-5.31
20,A6C G19C A43U A50C U96G,-4.2
21,A6G C72U C97U,-1.35
